{"source": "paper PMC9516341", "target": "Flag-tagged ARNO (p3XFLAG-2-mCytohesin-2)", "test": "co-immunoprecipitation (anti-FLAG M2 IP of FLAG-ARNO, immunoblot for FE65, quantified)", "conditions": "transfected cell lysate; three independent experiments; unpaired t-test, *p < 0.001; parent: 1", "data": [{"substance": "Myc-tagged FE65 (from UniProt O00213) R605A", "values": [{"measurement": "ratio to parent", "result": 0.34}]}]}
